Assay results published in patent publication US10562947B2, “Compositions and methods for preventing or treating diseases, conditions or processes characterized by aberrant fibroblast proliferation and extracellular matrix deposition” (MOERAE MATRIX, INC., priority 2011, dated 2020).

Columns and labels:
Experiment in all cases: Kinase Profiling Assay
Assay type in all cases: biochemical
Settings in all cases: 100 μM peptide
[1] = molecular target: Abl(H396P)(h) (Homo sapiens, UniProt P00519, H396P)
Summary of the method: (§1)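 Specificity of the MK2-directed peptides is examined by measuring activity of 266 human kinases, every determination performed in duplicate.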

[2] = molecular target: EGFR(T790M)(h) (Homo sapiens, UniProt P00533, T790M)
Summary of the method: as §1

[3] = molecular target: PDGFRα(D842V)(h) (Homo sapiens, UniProt P16234, D842V)
Summary of the method: as §1

[4] = molecular target: T1, Aurora-A(h) (Homo sapiens, UniProt O14965)
T1 sequence (O14965 1-403): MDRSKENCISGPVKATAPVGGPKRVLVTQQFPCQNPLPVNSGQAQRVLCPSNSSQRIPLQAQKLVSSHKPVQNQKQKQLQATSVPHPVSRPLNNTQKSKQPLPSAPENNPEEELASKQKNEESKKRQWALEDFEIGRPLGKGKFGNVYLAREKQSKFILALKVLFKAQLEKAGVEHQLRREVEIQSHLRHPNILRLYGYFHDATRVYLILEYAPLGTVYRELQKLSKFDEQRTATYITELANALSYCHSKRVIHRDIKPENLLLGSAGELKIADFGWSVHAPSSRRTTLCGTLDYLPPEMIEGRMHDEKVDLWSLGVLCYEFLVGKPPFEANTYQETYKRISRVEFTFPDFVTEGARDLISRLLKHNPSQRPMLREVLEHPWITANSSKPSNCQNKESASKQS
Summary of the method: as §1

[5] = molecular target: Lck(h) (Homo sapiens, UniProt P06239)
Summary of the method: as §1

[6] = molecular target: T2, HIPK3(h) (Homo sapiens, UniProt Q9H422)
T2 construct: purchased Millipore
Summary of the method: as §1

[7] = molecular target: PAR-1Bα(h) (Homo sapiens, UniProt Q7KZI7)
Summary of the method: as §1

[8] = molecular target: CK1γ3(h) (Homo sapiens, UniProt Q9Y6M4)
Summary of the method: as §1

[9] = molecular target: PAK3(h) (Homo sapiens, UniProt O75914)
Summary of the method: as §1

[10] = molecular target: T3, MKK7β(h) (Homo sapiens, UniProt O14733)
T3 sequence (O14733 1-419): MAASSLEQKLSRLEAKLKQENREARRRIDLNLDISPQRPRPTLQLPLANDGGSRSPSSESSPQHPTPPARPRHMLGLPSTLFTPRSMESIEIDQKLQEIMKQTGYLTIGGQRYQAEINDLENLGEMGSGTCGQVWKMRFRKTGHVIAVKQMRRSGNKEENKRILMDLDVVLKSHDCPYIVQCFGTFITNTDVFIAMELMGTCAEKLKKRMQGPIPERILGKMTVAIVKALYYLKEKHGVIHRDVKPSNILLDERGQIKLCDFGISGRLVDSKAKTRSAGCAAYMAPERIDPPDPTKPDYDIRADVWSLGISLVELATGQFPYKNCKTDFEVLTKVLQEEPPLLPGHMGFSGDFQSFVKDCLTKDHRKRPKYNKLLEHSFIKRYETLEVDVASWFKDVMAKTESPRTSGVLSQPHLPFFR
Summary of the method: as §1

[11] = molecular target: T4, JNK1α1(h) (Homo sapiens, UniProt P45983)
T4 construct: purchased Millipore
Summary of the method: as §1

[12] = molecular target: T5, GRK5(h) (Homo sapiens, UniProt P34947)
T5 construct: purchased Millipore
Summary of the method: as §1

[13] = molecular target: MAPK1(h) (Homo sapiens, UniProt P27361)
Summary of the method: as §1

[14] = molecular target: T6, IGF-1R(h) (Homo sapiens, UniProt P08069)
T6 construct: purchased Millipore
Summary of the method: as §1

[15] = molecular target: Tie2(R849W)(h) (Homo sapiens, UniProt Q02763, R849W)
Summary of the method: as §1

[16] = molecular target: CK2α2(h) (Homo sapiens, UniProt P19784)
Summary of the method: as §1

Sequence of CK1γ3(h) (Q9Y6M4 whole entry): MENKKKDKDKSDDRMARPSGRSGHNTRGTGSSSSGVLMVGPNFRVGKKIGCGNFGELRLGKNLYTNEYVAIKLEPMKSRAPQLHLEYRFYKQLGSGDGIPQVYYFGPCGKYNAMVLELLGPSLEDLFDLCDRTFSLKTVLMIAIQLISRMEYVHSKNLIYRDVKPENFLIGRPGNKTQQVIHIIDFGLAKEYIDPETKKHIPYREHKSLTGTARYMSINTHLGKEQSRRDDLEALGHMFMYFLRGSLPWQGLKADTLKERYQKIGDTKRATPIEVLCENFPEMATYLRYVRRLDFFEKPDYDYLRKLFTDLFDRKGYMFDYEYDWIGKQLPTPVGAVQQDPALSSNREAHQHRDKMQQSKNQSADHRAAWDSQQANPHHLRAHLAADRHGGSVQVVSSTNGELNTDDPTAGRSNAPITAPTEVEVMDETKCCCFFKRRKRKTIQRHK
Sequence of PDGFRα(D842V)(h) (P16234 24-1089 D842V): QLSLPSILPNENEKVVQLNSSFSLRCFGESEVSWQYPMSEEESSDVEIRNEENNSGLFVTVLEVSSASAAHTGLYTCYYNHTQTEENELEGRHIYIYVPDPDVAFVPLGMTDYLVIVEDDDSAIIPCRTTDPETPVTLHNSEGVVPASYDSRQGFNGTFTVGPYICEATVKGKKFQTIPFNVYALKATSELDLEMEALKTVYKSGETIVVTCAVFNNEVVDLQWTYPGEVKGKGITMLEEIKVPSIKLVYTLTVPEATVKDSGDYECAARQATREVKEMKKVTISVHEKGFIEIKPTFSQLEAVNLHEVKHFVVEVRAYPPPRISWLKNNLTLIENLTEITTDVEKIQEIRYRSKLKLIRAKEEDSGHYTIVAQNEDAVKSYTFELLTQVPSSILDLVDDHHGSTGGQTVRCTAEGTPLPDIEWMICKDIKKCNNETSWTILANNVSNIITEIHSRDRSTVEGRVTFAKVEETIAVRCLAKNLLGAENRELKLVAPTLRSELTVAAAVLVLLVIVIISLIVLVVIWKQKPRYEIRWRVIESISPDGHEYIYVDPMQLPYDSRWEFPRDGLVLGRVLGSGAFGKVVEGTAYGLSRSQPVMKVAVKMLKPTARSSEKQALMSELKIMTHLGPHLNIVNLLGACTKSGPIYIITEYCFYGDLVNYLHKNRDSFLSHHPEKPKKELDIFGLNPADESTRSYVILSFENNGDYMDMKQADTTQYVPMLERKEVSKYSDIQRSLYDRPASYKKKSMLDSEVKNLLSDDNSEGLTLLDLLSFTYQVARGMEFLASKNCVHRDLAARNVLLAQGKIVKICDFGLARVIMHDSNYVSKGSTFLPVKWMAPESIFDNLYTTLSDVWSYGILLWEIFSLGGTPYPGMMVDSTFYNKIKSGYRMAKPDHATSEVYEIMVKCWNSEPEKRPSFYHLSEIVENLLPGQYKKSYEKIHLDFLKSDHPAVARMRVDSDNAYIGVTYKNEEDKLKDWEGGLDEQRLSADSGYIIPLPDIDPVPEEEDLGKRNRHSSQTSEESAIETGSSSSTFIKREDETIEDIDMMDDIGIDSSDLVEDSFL
Sequence of Lck(h) (P06239 whole entry): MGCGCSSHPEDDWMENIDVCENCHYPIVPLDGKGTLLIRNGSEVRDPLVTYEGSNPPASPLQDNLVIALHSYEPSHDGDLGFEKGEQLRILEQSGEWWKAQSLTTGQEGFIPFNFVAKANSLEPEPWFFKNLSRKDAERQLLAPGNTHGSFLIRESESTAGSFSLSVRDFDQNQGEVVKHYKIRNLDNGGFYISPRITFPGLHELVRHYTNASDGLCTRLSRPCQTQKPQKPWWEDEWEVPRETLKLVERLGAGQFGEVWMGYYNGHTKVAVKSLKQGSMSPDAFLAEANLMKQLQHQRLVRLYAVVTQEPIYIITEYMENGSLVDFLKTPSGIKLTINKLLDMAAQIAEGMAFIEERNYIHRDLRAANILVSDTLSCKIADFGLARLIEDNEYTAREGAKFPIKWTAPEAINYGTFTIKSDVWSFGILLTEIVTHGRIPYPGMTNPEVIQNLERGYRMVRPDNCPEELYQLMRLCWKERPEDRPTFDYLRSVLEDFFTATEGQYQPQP
Sequence of MAPK1(h) (P27361 whole entry): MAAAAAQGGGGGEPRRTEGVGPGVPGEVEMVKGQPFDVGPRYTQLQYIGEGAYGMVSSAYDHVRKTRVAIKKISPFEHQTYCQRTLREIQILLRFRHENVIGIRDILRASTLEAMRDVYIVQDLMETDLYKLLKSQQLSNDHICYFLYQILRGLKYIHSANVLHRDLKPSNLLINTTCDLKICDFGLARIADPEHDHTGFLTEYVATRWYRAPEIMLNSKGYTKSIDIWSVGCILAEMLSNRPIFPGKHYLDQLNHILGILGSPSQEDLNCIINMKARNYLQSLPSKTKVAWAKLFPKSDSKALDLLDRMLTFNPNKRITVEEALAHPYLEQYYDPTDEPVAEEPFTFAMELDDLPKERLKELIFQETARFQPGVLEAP
Sequence of PAK3(h) (O75914 whole entry): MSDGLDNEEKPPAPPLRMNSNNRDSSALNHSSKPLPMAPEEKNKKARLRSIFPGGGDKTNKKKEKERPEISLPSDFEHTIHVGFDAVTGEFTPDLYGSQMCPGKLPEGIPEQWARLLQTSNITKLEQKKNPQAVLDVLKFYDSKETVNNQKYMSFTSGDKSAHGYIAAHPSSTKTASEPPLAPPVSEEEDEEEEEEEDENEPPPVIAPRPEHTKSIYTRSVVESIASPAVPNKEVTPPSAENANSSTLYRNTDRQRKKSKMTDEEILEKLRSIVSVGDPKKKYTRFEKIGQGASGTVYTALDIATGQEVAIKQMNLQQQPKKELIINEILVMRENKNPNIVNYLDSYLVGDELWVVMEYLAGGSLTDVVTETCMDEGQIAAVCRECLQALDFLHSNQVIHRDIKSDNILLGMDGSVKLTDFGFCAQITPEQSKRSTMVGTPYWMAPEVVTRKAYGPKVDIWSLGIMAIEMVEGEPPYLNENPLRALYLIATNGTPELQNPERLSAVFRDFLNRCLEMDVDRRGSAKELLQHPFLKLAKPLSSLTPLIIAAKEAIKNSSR
Sequence of PAR-1Bα(h) (Q7KZI7 1-725 isoform Q7KZI7-4): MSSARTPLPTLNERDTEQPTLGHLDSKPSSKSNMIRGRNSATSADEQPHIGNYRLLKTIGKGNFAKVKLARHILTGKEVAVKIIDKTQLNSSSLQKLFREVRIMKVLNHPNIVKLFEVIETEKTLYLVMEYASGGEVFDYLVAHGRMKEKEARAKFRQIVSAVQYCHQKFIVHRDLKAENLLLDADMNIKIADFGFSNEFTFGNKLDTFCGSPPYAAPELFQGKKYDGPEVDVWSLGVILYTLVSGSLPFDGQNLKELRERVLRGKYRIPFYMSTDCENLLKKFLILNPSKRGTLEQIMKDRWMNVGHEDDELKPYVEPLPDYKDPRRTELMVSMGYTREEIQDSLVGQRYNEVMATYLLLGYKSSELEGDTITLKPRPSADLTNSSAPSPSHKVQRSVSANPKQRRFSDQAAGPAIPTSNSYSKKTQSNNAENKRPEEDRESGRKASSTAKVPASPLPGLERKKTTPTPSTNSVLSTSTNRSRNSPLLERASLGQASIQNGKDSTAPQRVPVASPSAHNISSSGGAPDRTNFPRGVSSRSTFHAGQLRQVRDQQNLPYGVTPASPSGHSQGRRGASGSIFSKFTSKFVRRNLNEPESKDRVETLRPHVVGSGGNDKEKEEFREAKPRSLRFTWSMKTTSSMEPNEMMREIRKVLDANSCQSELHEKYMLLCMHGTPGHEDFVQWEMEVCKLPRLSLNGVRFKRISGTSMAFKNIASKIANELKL
T2 sequence (Q9H422 whole entry): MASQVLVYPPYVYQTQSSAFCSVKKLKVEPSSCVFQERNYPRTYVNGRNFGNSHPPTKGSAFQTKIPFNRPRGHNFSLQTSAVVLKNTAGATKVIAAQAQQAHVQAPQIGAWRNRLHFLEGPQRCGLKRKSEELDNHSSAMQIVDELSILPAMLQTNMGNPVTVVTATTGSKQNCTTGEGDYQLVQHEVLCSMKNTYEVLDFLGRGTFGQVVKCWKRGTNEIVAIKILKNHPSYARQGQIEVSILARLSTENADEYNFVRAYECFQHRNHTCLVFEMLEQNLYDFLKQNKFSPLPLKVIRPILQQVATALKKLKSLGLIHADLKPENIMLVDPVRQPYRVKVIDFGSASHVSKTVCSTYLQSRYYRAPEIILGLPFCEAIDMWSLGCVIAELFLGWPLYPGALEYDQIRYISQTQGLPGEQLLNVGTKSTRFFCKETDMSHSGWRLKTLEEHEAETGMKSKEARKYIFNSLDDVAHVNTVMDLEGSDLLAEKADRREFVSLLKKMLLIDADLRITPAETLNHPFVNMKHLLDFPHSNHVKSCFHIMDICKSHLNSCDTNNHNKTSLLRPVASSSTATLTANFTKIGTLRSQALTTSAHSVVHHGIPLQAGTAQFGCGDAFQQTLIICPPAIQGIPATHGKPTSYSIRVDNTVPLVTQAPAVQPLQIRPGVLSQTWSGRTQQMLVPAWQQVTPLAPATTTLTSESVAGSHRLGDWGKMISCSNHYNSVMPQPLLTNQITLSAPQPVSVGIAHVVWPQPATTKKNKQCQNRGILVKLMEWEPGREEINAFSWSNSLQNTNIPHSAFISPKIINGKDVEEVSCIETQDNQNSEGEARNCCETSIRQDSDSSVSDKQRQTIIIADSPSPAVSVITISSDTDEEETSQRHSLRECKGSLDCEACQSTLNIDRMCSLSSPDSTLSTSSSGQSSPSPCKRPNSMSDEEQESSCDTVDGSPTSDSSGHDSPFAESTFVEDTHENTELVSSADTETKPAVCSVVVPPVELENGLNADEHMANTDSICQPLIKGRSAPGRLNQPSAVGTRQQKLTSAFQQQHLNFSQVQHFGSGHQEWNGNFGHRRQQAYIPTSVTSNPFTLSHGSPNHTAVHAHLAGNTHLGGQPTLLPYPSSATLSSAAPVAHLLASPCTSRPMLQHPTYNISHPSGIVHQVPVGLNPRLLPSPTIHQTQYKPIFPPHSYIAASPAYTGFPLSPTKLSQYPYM

Sequence | Abl(H396P)(h) % activity [1] [%] | EGFR(T790M)(h) % activity [2] [%] | PDGFRα(D842V)(h) % activity [3] [%] | Aurora-A(h) % activity [4] [%] | Lck(h) % activity [5] [%] | HIPK3(h) % activity [6] [%] | PAR-1Bα(h) % activity [7] [%] | CK1γ3(h) % activity [8] [%] | PAK3(h) % activity [9] [%] | MKK7β(h) % activity [10] [%] | JNK1α1(h) % activity [11] [%] | GRK5(h) % activity [12] [%] | MAPK1(h) % activity [13] [%] | IGF-1R(h) % activity [14] [%] | Tie2(R849W)(h) % activity [15] [%] | CK2α2(h) % activity [16] [%]
HRRIKAWLKKIKALARQLGVAA (Mammalian) [MMI-0500] | 51 | 70 | 170 | 110 | 359 | 85 | 97 |  |  |  |  |  |  |  |  | 
FAKLAARLYRKALARQLGVAA [MMI-0300] | 101 | 100 |  | 92 | −2 | 93 |  | 125 | 140 | 100 | 97 |  |  |  |  | 
YARAAARQARAKALNRQLGVA (Mammalian) [MMI-0200] |  |  |  |  |  |  | 110 | 96 | 50 |  |  | 135 | 97 | 49 | 89 | 88
KAFAKLAARLYRKALARQLGVAA [MMI-0400] |  |  | 118 |  |  |  |  |  |  | 94 | 98 | 131 | 100 | 90 | 108 | 96
